Patent US20120115870A1, “CONTROL OF INTRAOCULAR PRESSURE USING ALK5 MODULATION AGENTS” (ALCON RESEARCH, LTD., priority 2005, published 2012)

Assays:
[1] = system: GTM-3 transformed human TM cells; test: Pro-collagen type I C-peptide (PIP) in human TM cell cultures, ELISA (FIG. 4); type: cell-based; conditions: 24 h
Description: For this experiment, cultured transformed GTM-3 cells (Pang et al., Curr Eye Res., 1994; Vol. 13:51-63) were grown in a growth medium consisting of Dulbecco's modified Eagle's medium with Glutamax I (Gibco/Invitrogen, Grand Island, N.Y.) supplemented with 10% fetal bovine serum (Hyclone, Logan, Utah) and 50 μg/mL gentamicin (Gibco/Invitrogen). For assay, cultures were enzymatically-dissociated (TrypLE Express; Gibco/Invitrogen) then seeded into 24-well plates (Corning Costar, Acton, Mass.) and allowed to grow until monolayers reached approximately 90-95% confluence. Culture medium was then replaced with 0.25 mL serum- and antibiotic-free medium containing the appropriate test compound(s). Cells were incubated 24 h, at 5% CO2 and 37° C. Aliquots of culture supernatants were then assayed using an ELISA kit for procollagen Type I C-peptide (TaKaRa Bio, Shiga, Japan).
Collagens are synthesized as pro-collagens, most of which contain additional peptide sequences called “propeptides”. Propeptides are located at both the N- and C-terminal ends of the molecules. These propeptides serve to facilitate formation of the mature collagen's triple helical structure from pro-collagens within the endoplasmic reticulum. […]

[2] = system: GTM-3 transformed human TM cells; test: TGF-β2-mediated fibronectin and PAI-1 in human TM cell culture supernatants, ELISA (FIG. 3); type: cell-based; conditions: human TM cell cultures, 24 h
Description: (§1) Generation and characterization of the GTM-3 transformed cell line has been previously described (Pang et al., Curr Eye Res., 1994; Vol. 13:51-63). Briefly, maintenance growth medium consisted of Dulbecco's modified Eagle's medium with Glutamax I (Gibco/BRL, Grand Island, N.Y.) supplemented with 10% fetal bovine serum (Hyclone, Logan, Utah) and 50 μg/mL gentamicin (Gibco/BRL). For assay, cultures were trypsinized and seeded into 24-well plates (Corning Costar, Acton, Mass.) and allowed to grow until monolayers reached approximately 90% confluence. Culture medium was then replaced with 0.25 mL serum- and antibiotic-free medium containing the appropriate test compound(s). Cells were incubated 24 h, at 5% CO2 and 37° C. Aliquots of culture supernatants were then assayed for fibronectin and/or PAI-1 content by ELISA.

[3] = system: TGF-β2-treated perfused human anterior segment model; test: Perfusate fibronectin in TGF-β2-treated perfused human anterior segment model (FIG. 2); conditions: human anterior segments treated with TGF-β2 and compound vs TGF-β2 only
Description: Human ocular perfusion organ culture was performed as described in available literature. [Tschumper et al., Curr Eye Res., 1990; Vol. 9:363-369; Clark et al., Invest Ophthalmol Vis Sci., 1995; Vol. 36:478-489; Pang et al., J Glaucoma, 2000; Vol. 9:468-479; Pang et al., Invest Ophthalmol Vis Sci., 2003; Vol. 44:3502-3510]. Briefly, anterior segments were dissected and mounted into custom Plexiglas culture chambers, then perfused with serum-free Dulbecco's modified Eagle's medium. IOP was monitored every 5 seconds and averaged each hour. Perfused tissue was allowed to equilibrate at 37° C. and 5% CO2 until a stable baseline IOP was achieved, typically 2-4 days; tissues with unstable IOP were discarded. Stable tissues were then further perfused with media containing the test compound(s) as indicated and changes in IOP were recorded. Eluate samples were collected daily for ELISA analysis of fibronectin and PAI-1 content. Tissues were fixed and evaluated for viability/morphology by light and electron microscopy at termination of each study. Data from unacceptable tissues were excluded from results. Criteria for “unacceptable” tissues included findings such as excess debris in the TM region, denudation of TM beams, loss of TM and/or Schlemm's canal cells, and breaks or collapse of Schlemm's canal. […]

ALK5 = biological target: T1, ALK5 (Homo sapiens, UniProt P36897); conditions: Brit J Pharmacol. 2005; 145:166-177; read-out: IC50, inhibition of phosphorylation of ALK5; cited from earlier work
T1 sequence (P36897 34-503): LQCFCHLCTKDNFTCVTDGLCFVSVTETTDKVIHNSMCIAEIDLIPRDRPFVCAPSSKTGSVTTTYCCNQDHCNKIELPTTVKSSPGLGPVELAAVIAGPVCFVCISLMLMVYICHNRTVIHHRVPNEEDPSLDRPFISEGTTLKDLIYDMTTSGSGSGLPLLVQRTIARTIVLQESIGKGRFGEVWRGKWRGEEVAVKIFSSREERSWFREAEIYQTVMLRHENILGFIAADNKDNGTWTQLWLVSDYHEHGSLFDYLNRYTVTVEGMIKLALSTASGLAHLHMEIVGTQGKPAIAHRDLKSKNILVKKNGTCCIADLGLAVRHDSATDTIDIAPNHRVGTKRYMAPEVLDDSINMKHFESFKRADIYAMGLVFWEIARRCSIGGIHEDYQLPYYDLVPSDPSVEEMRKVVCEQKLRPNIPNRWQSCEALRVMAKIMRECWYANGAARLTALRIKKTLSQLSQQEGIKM

TGF-β Type II receptors = TGF-β Type II receptors (Homo sapiens, UniProt P37173); conditions: Brit J Pharmacol. 2005; 145:166-177; read-out: IC50, phosphorylation of TGF-β Type II receptors; cited from earlier work
TGF-β Type II receptors, sequence (P37173 23-567): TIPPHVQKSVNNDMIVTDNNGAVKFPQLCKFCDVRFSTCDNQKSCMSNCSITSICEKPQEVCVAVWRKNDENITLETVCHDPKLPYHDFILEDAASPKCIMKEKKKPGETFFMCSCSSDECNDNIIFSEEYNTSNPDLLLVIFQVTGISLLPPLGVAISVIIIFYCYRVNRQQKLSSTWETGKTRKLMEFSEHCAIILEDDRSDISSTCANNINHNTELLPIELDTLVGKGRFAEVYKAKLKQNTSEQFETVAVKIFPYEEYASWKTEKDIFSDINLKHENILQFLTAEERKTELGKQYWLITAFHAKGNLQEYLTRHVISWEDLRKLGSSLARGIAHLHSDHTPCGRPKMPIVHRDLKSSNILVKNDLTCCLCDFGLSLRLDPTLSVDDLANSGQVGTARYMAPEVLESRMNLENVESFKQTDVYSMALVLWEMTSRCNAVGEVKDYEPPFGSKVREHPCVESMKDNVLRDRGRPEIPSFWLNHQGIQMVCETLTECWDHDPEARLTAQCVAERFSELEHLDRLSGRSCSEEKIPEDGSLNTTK

p38 MAPK = p38 MAPK (Homo sapiens, UniProt Q16539); conditions: Brit J Pharmacol. 2005; 145:166-177; read-out: IC50, phosphorylation of p38 MAPK; cited from earlier work
p38 MAPK, sequence (Q16539 whole entry, the tested form may be a part): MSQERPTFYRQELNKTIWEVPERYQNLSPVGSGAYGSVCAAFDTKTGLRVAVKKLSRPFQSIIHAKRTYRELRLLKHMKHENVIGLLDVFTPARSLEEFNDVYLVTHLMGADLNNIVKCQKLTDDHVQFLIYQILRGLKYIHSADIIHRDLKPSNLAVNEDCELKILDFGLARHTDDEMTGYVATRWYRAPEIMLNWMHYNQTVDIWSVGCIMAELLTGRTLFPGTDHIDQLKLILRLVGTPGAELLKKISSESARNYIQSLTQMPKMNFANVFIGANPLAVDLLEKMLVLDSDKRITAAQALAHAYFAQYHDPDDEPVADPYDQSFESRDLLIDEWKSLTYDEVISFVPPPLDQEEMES

[4] = system: perfused human anterior segment model; test: Perfused human anterior segment model, IOP (FIG. 1); conditions: TGF-β2 infused at 5 ng/mL
Description: FIG. 1 is a graph showing the effect of infused TGF-β2 on a perfused human anterior segment model. All donor eyes used in this model were used according to the provisions of the Declaration of Helsinki for research involving human tissue, and were used within 24 hours post-mortem. No donors were known to have a history of glaucoma or other ocular disorder.
Human ocular perfusion organ culture was performed as described in available literature. [Tschumper et al., Curr Eye Res., 1990; Vol. 9:363-369; Clark et al., Invest Ophthalmol Vis Sci., 1995; Vol. 36:478-489; Pang et al., J Glaucoma, 2000; Vol. 9:468-479; Pang et al., Invest Ophthalmol Vis Sci., 2003; Vol. 44:3502-3510]. Briefly, anterior segments were dissected and mounted into custom Plexiglas culture chambers, then perfused with serum-free Dulbecco's modified Eagle's medium. IOP was monitored every 5 seconds and averaged each hour. Perfused tissue was allowed to equilibrate at 37° C. and 5% CO2 until a stable baseline IOP was achieved, typically 2-4 days; tissues with unstable IOP were discarded. Stable tissues were then further perfused with media containing the test compound(s) as indicated and changes in IOP were recorded. Eluate samples were collected daily for ELISA analysis of fibronectin and PAI-1 content. Tissues were fixed and evaluated for viability/morphology by light and electron microscopy at termination of each study. […]

GTM-3 = test: Effect of TGF-β2 on HTM cell secretion of fibronectin and PAI-1; type: cell-based, human; conditions: 24 hours
Description: as §1
(§2) TABLE 1, shown below, summarizes the results of a study measuring the effect of TGF-β2 on ECM-related protein levels (fibronectin, PAI-1) in cultured TM cells of various strains. TGF-β2 was present in the cultures at a concentration of 5 ng/mL, and protein levels (mean±s.e.m.) were measured after 24 hours.

GTM686-03 = test: as above; type: cell-based, human; conditions: 24 hours
Description: as §1, §2

SGTM1233-99 = test: as above; type: cell-based, human; conditions: 24 hours
Description: as §1, §2

NTM974-03 = test: as above; type: cell-based, human; conditions: 24 hours
Description: as §1, §2

SGTM2697 = test: as above; type: cell-based, human; conditions: 24 hours
Description: as §1, §2

NTM25-91 = test: as above; type: cell-based, human; conditions: 24 hours
Description: as §1, §2

NTM35 = test: as above; type: cell-based, human; conditions: 24 hours
Description: as §1, §2

GTM29-01 = test: as above; type: cell-based, human; conditions: 24 hours
Description: as §1, §2

GTM730-03 = test: as above; type: cell-based, human; conditions: 24 hours
Description: as §1, §2

NTM553-02 = test: as above; type: cell-based, human; conditions: 24 hours
Description: as §1, §2

NTM875-03 = test: as above; type: cell-based, human; conditions: 24 hours
Description: as §1, §2

Molecule: NC(=O)c1ccc(-c2nc(-c3ccc4c(c3)OCO4)c(-c3ccccn3)[nH]2)cc1 [Compound 1]
- TGF-β2-dependent PIP elevation ([1]; cultures treated with both TGF-β2 and compound): eliminated
- Inhibition of TGF-β2-mediated increase in PAI-1 content in supernatants [2]: dose-dependent inhibition
- Inhibition of TGF-β2-mediated increase in fibronectin content in supernatants [2]: dose-dependent inhibition
- TGF-β2-mediated increase in perfusate fibronectin content [3]: completely antagonized

Molecule: c1ccc(-c2n[nH]cc2-c2ccnc3ccccc23)nc1 [Compound 2]
- Inhibition of TGF-β2-mediated increase in PAI-1 content in supernatants [2]: dose-dependent inhibition
- Inhibition of TGF-β2-mediated increase in fibronectin content in supernatants [2]: dose-dependent inhibition

Molecule: c1ccc(-c2cc(-c3cn[nH]c3-c3ccccn3)ccn2)cc1 [GW-6604]
- IC50 (ALK5): ~0.14 µM
- IC50 (TGF-β Type II receptors): 10 µM
- IC50 (p38 MAPK): 9.5 µM

B1: TGF-β2: transforming growth factor-beta isoform 2, a cytokine acting on ALK5 (Type 1 TGF-β receptor) (protein, UniProt P61812 303-414, looked up)
Transforming growth factor …: ALDAAYCFRNVQDNCCLRPLYIDFKRDLGWKWIHEPKGYNANFCAGACPYLWSSDTQHSRVLSLYNTINPEASASPCCVSQDLEPLTILYYIGKTPKIEQLSNMIVKSCKCS
- PIP levels compared to vehicle ([1]; TGF-β2-treated cultures, both study replicates): greatly elevated
- IOP relative to control ([4]; after 72 hours): almost double
- IOP compared to control ([4]; within 24 hours): elevated IOP
- Fibronectin Fold Increase (GTM-3; TGF-β2 5 ng/mL vs control): 5.4
- PAI-1 Fold Increase (GTM-3; TGF-β2 5 ng/mL vs control): 19.4
- Fibronectin (GTM-3; TGF-β2 5 ng/mL, mean±s.e.m.): 16.7 ± 1^ μg/well
- PAI-1 (GTM-3; TGF-β2 5 ng/mL, mean±s.e.m.): 266 ± 8 ng/well
- Fibronectin Fold Increase (GTM686-03; TGF-β2 5 ng/mL vs control): 126
- PAI-1 Fold Increase (GTM686-03; TGF-β2 5 ng/mL vs control): 2.5
- Fibronectin (GTM686-03; TGF-β2 5 ng/mL, mean±s.e.m.): 25.2 ± 9.6 μg/well
- PAI-1 (GTM686-03; TGF-β2 5 ng/mL, mean±s.e.m.): 258.3 ± 28.1 ng/well
- Fibronectin Fold Increase (SGTM1233-99; TGF-β2 5 ng/mL vs control): 3.1
- PAI-1 Fold Increase (SGTM1233-99; TGF-β2 5 ng/mL vs control): 2.9
- Fibronectin (SGTM1233-99; TGF-β2 5 ng/mL, mean±s.e.m.): 12.2 ± 2.1 μg/well
- PAI-1 (SGTM1233-99; TGF-β2 5 ng/mL, mean±s.e.m.): 256.5 ± 35.4 ng/well
- Fibronectin Fold Increase (NTM974-03; TGF-β2 5 ng/mL vs control): 2.3
- PAI-1 Fold Increase (NTM974-03; TGF-β2 5 ng/mL vs control): 2.8
- Fibronectin (NTM974-03; TGF-β2 5 ng/mL, mean±s.e.m.): 8.9 ± 1.5 μg/well
- PAI-1 (NTM974-03; TGF-β2 5 ng/mL, mean±s.e.m.): 297.7 ± 23.1 ng/well
- Fibronectin Fold Increase (SGTM2697; TGF-β2 5 ng/mL vs control): 2.4
- Fibronectin (SGTM2697; TGF-β2 5 ng/mL, mean±s.e.m.): 19.5 ± 2^ μg/well
- Fibronectin Fold Increase (NTM25-91; TGF-β2 5 ng/mL vs control): 6.2
- Fibronectin (NTM25-91; TGF-β2 5 ng/mL, mean±s.e.m.): 19.3 ± 1.5 μg/well
- Fibronectin Fold Increase (NTM35; TGF-β2 5 ng/mL vs control): 4.1
- Fibronectin (NTM35; TGF-β2 5 ng/mL, mean±s.e.m.): 13 ± 2.7 μg/well
- Fibronectin Fold Increase (GTM29-01; TGF-β2 5 ng/mL vs control): 9.4
- PAI-1 Fold Increase (GTM29-01; TGF-β2 5 ng/mL vs control): 3.9
- Fibronectin (GTM29-01; TGF-β2 5 ng/mL, mean±s.e.m.): 9.4 ± 2.6 μg/well
- PAI-1 (GTM29-01; TGF-β2 5 ng/mL, mean±s.e.m.): 260.5 ± 13.6 ng/well
- Fibronectin Fold Increase (GTM730-03; TGF-β2 5 ng/mL vs control): 32.8
- PAI-1 Fold Increase (GTM730-03; TGF-β2 5 ng/mL vs control): 2.2
- Fibronectin (GTM730-03; TGF-β2 5 ng/mL, mean±s.e.m.): 26.2 ± 1.6 μg/well
- PAI-1 (GTM730-03; TGF-β2 5 ng/mL, mean±s.e.m.): 268.8 ± 3.9 ng/well
- Fibronectin Fold Increase (NTM553-02; TGF-β2 5 ng/mL vs control): 6.7
- PAI-1 Fold Increase (NTM553-02; TGF-β2 5 ng/mL vs control): 2.5
- Fibronectin (NTM553-02; TGF-β2 5 ng/mL, mean±s.e.m.): 10.1 ± 1.1 μg/well
- PAI-1 (NTM553-02; TGF-β2 5 ng/mL, mean±s.e.m.): 315.9 ± 9.5 ng/well
- Fibronectin Fold Increase (NTM875-03; TGF-β2 5 ng/mL vs control): 19.2
- PAI-1 Fold Increase (NTM875-03; TGF-β2 5 ng/mL vs control): 2.6
- Fibronectin (NTM875-03; TGF-β2 5 ng/mL, mean±s.e.m.): 9.6 ± 3.8 μg/well
- PAI-1 (NTM875-03; TGF-β2 5 ng/mL, mean±s.e.m.): 282.6 ± 11.6 ng/well
